Reference: patent US20130171178A1 (US Dept. of Health and Human Services, published 2013)
One block for each binder: values may come before it.

Legend:
[1] = target: HLA-A2 MHC class I molecule (human); assay: T2 binding assay, surface HLA-A2 by flow cytometry (BB7.2)
[2] = target: HLA-A2 MHC class I molecule (human); assay: T2 binding assay, surface HLA-A2 by flow cytometry
Description: Binding affinity to HLA-A2 of synthetic peptides derived from the XAGE-1 amino acid sequence was measured by using T2 cells. The T2 cell line is a T-B fusion hybridoma cell line deficient in TAP1 and TAP2 gene expression available from the ATCC under accession number CRL-1992. T2 cells suspended in Dulbecco's modified Eagles' medium (DMEM) containing 2.5% fetal calf serum (FCS) were incubated overnight with different concentrations of the peptides and 10 μg/ml of β2-microglobulin. The cells were washed twice with phosphate buffered saline (PBS) containing 2% FCS and incubated on ice with anti-HLA-A2 monoclonal antibody (BB7.2, produced by ATCC cell line HB-82) for 30 min. After a single wash, the cells were stained with FITC-labeled goat anti-mouse Ig antibody for 30 min on ice. The cells were washed twice, and expression of HLA-A2 was measured by flow cytometry. The expression level of HLA-A2 was determined as follows: mean fluorescent index (F.I.)=(mean fluorescent intensity of the sample with peptide−mean fluorescent intensity of the sample without peptide)/mean fluorescent intensity of the sample without peptide; mean fluorescent intensity=geometric mean fluorescent intensity of the sample stained with both 1st and 2nd antibody−geometric mean fluorescent intensity of the sample stained with 2nd antibody alone.
A series of peptides derived from xage-1 14 were discovered with enhanced binding to HLA-A2.

B3: 1Y xage-1 14 (peptide)
peptide: YVFPSAPSPV
FI50 [2]: 2.36 µM

B4: 2L xage-1 14 (peptide)
peptide: GLFPSAPSPV
FI50 [2]: 1.86 µM

B5: xage-1 57 peptide (peptide)
peptide: HTASPRSPVM
notes: Synthetic 10-mer
F.I.50 [1]: > 50 µM

B6: 2L3M xage-1 14 (peptide)
peptide: GLMPSAPSPV
FI50 [2]: 0.62 µM

Other lines, results leading:

F.I.50 [1]: > 50 µM
B1: xage-1 33 peptide (peptide)
peptide: ATRVPEVWIL
notes: Synthetic 10-mer

FI50 [2]: 3.04 µM
B2: 1Y2L xage-1 14 (peptide)
peptide: YLFPSAPSPV

FI50 [2]: 0.28 µM
B7: 3M xage-1 14 (peptide)
peptide: GVMPSAPSPV
